# Assay results published in US20100255485A1, “BIOMARKERS FOR THE ONSET OF NEURODEGENERATIVE DISEASES” (priority 2007, published 2010).
# B1: BDNF: member of the neurotrophin family (protein, UniProt P23560 19-247, looked up)
# Neurotrophic factor BDNF …: APMKEANIRGQGGLAYPGVRTHGTLESVNGPKAGSRGLTSLADTFEHVIEELLDEDQKVRPNEENNKDADLYTSRVMLSSQVPLEPPLLFLLEEYKNYLDAANMSMRVRRHSDPARRGELSVCDSISEWVTAADKKTAVDMSGGTVTVLEKVPVSKGQLKQYFYETKCNPMGYTKEGCRGIDKRHWNSQCRTTQSYVRALTMDSKKRIGWRFIRIDTSCVCTLTIKRGR
# B2: cardiotrophin-1: cytokine present in embryonic muscle (protein, UniProt Q16619 1-201, looked up)
# Cardiotrophin-1: MSRREGSLEDPQTDSSVSLLPHLEAKIRQTHSLAHLLTKYAEQLLQEYVQLQGDPFGLPSFSPPRLPVAGLSAPAPSHAGLPVHERLRLDAAALAALPPLLDAVCRRQAELNPRAPRLLRRLEDAARQARALGAAVEALLAALGAANRGPRAEPPAATASAASATGVFPAKVLGLRVCGLYREWLSRTEGDLGQLLPGGSA
# B3: GDNF: neurotrophic factor (protein, UniProt P39905 78-211, looked up)
# Glial cell line-derived …: SPDKQMAVLPRRERNRQAAAANPENSRGKGRRGQRGKNRGCVLTAIHLNVTDLGLGYETKEELIFRYCSGSCDAAETTYDKILKNLSRNRRLVSDKVGQACCRPIAFDDDLSFLDDNLVYHILRKHSAKRCGCI
# B4: NT-3: member of the neurotrophin family (protein, UniProt P20783 139-257, looked up)
# Neurotrophin-3: YAEHKSHRGEYSVCDSESLWVTDKSSAIDIRGHQVTVLGEIKTGNSPVKQYFYETRCKEARPVKNGCRGIDDKHWNSQCKTSQTYVRALTSENNKLVGWRWIRIDTSCVCALSRKIGRT
# B5: NT-4: member of the neurotrophin family (protein, UniProt P34130 81-210, looked up)
# Neurotrophin-4: GVSETAPASRRGELAVCDAVSGWVTDRRTAVDLRGREVEVLGEVPAAGGSPLRQYFFETRCKADNAEEGGPGAGGGGCRGVDRRHWVSECKAKQSYVRALTADAQGRVGWRWIRIDTACVCTLLSRTGRA
# B6: CNTF: CNTF rat recombinant protein (Sigma Aldrich); specific stress-protecting factor (protein, UniProt P20294 1-200, looked up)
# Ciliary neurotrophic factor: MAFAEQTPLTLHRRDLCSRSIWLARKIRSDLTALMESYVKHQGLNKNINLDSVDGVPVASTDRWSEMTEAERLQENLQAYRTFQGMLTKLLEDQRVHFTPTEGDFHQAIHTLMLQVSAFAYQLEELMVLLEQKIPENEADGMPATVGDGGLFEKKLWGLKVLQELSQWTVRSIHDLRVISSHQMGISALESHYGAKDKQM
# How the values were obtained:
# embryonic motor neuron = details: cited from earlier work
# SOD1(G93A) mice [1] = assay: Intramuscular Salubrinal into one hindlimb of SOD1(G93A) mice: ER stress, UPR, microglia activation, neuromuscular junctions; assay type: in vivo
# [2] = tested on: murine models of inherited progressive motor degeneration; details: CNTF and/or BDNF; cited from earlier work
# motoneurons = details: in vivo; cited from earlier work
# SOD1(G93A) mice [3] = details: intramuscular applications of CNTF; stated as known effect; cited from earlier work
# SOD1(G93A) mice [4] = assay: Intramuscular CNTF in SOD1(G93A) mice: stress responses in VUL MNs and microglia activation; assay type: in vivo
# [5] = early treatment P14 until P32, analyzed at P39
# [6] = early treatment P14 until P32, analyzed at P53
# [7] = late treatment P39 until P50, analyzed at P53
# [8] = CNTF intramuscular from P28 to P40
molecule,measurement,setting,value
LIF: cytokine,embryonic motor neuron survival in culture,embryonic motor neuron,enhanced
O=C(/C=C/c1ccccc1)NC(NC(=S)Nc1cccc2cccnc12)C(Cl)(Cl)Cl (centres unmarked) [Salubrinal],disease process during the Salubrinal treatments,SOD1(G93A) mice [1]; early and late treatments taken together,partially reversed
same,disease process during administration,SOD1(G93A) mice [1]; early treatment P14 until P32,effectively arrested
same,UPR,SOD1(G93A) mice [1]; [5],no evidence of a UPR
same,microglia activation,SOD1(G93A) mice [1]; [5],no microglia activation
same,levels of BiP,"SOD1(G93A) mice [1]; early treatment P14 until P32, analyzed at P39 (7 days after discontinuation)",low levels
same,loss of synaptic vesicles at neuromuscular junctions,SOD1(G93A) mice [1]; [6],no loss
same,microglia activation,SOD1(G93A) mice [1]; [6],mild microglia activation
same,UPR,"SOD1(G93A) mice [1]; early treatment P14 until P32, analyzed at P53 (21 days after discontinuation)",early signs of a UPR
same,UPR,SOD1(G93A) mice [1]; [7],mild UPR
same,loss of neuromuscular junction synaptic vesicles,SOD1(G93A) mice [1]; [7],no loss
same,microglia activation,SOD1(G93A) mice [1]; [7],mild microglia activation
IGF-1: neurotrophic factor,embryonic motor neuron survival in culture,embryonic motor neuron,enhanced
B1,embryonic motor neuron survival in culture,embryonic motor neuron,enhanced
same,protective effect in two murine models of inherited progressive motor degeneration,[2],protective effect
same,motoneuronal death occurring naturally during embryonic development,motoneurons,reduction
B2,embryonic motor neuron survival in culture,embryonic motor neuron,enhanced
same,motoneuronal death occurring naturally during embryonic development,motoneurons,reduction
B3,embryonic motor neuron survival in culture,embryonic motor neuron,enhanced
same,motoneuronal death occurring naturally during embryonic development,motoneurons,reduction
B4,embryonic motor neuron survival in culture,embryonic motor neuron,enhanced
B5,embryonic motor neuron survival in culture,embryonic motor neuron,enhanced
B6,embryonic motor neuron survival in culture,embryonic motor neuron,enhanced
same,protective effect in two murine models of inherited progressive motor degeneration,[2],protective effect
same,axonal pathology in VUL MNs,SOD1(G93A) mice [3],effectively attenuates
same,disease progression,SOD1(G93A) mice [3],slows
same,motoneuronal death occurring naturally during embryonic development,motoneurons,reduction
same,upregulation of BiP in VUL MNs,"SOD1(G93A) mice [4]; CNTF intramuscular from P20 to P28, before disease onset",completely prevented
same,UPR/UPS reaction,SOD1(G93A) mice [4]; [8],effectively prevented
same,VUL MN BiP and Pi-elF2a signals,SOD1(G93A) mice [4]; [8],normalized
same,activation of microglia on the spinal cord side ipsilateral to the treatment,SOD1(G93A) mice [4]; [8],reduced
same,downregulation of stress-related protective pathways in VUL MNs,SOD1(G93A) mice [4]; [8],counteracted
